From publication PMC6412114 come the findings set out here.

A word on the Kd: it is the concentration at which binding is half-saturated. Low readings indicate tighter binding, high ones weaker binding.

Data set [1] concerns the target T1, IDH1 (UniProt O75874 1-414). Description: EMSA. On the technique in general: In EMSA bound probe runs differently from free probe, usually more slowly.
For data set [2], the target named is T1, IDH1. Briefly: EMSA. This is another data set of the same source.

T1 sequence (O75874 whole entry): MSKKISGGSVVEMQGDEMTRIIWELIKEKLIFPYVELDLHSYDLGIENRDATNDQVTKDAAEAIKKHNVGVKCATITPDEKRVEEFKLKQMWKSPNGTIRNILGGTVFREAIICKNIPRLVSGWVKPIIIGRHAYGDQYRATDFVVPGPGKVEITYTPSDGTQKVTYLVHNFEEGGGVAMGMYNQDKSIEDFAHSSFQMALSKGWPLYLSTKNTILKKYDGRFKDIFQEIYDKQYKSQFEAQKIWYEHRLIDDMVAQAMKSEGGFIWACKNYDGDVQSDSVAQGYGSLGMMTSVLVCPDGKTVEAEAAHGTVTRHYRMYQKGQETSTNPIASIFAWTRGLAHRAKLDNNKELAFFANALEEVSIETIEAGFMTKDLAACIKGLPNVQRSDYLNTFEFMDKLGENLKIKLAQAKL

B1: AU-rich ssDNA (ssDNA)
DNA: GGATCCATTTATTTATTTATTTAAGCTTGG
For B1, the binding result in data set [1] was “no binding”.

B2: AU-rich DNA/RNA hybrid (DNA:RNA)
RNA: GGAUCCAUUUAUUUAUUUAUUUAAGCUUGG
DNA: CCTAGGTTAAATAAATAAATAAATCGATCC
For the molecule B2, in data set [1], the binding result was “no binding”.

B3: AU-rich dsRNA (dsRNA)
RNA 1: GGAUCCAUUUAUUUAUUUAUUUAAGCUUGG
RNA 2: CCUAGGUUAAAUAAAUAAAUAAAUCGAUCC
As for B3, the binding result in data set [1] is listed as “no binding”.

B4: AU-rich dsDNA (dsDNA)
DNA 1: GGATCCATTTATTTATTTATTTAAGCTTGG
DNA 2: CCTAGGTTAAATAAATAAATAAATCGATCC
As for B4, the binding result in data set [1] is “no binding”.

B5: AU-rich ssRNA (ssRNA)
RNA: GGAUCCAUUUAUUUAUUUAUUUAAGCUUGG
B5 came in with a dissociation constant (Kd) in data set [2] of 680 ± 70 nM.
